From publication PMC6780499, “Characterization, Recombinant Production and Structure-Function Analysis of NvCI, A Picomolar Metallocarboxypeptidase Inhibitor from the Marine Snail Nerita versicolor” (Marine Drugs, 2019) come the findings set out here.

Holding throughout (experiment): Ki determination, tight-binding inhibition of metallocarboxypeptidase
For one experiment, the target named is T1, hCPB (Homo sapiens, UniProt P15086).
T1 sequence (P15086 111-417): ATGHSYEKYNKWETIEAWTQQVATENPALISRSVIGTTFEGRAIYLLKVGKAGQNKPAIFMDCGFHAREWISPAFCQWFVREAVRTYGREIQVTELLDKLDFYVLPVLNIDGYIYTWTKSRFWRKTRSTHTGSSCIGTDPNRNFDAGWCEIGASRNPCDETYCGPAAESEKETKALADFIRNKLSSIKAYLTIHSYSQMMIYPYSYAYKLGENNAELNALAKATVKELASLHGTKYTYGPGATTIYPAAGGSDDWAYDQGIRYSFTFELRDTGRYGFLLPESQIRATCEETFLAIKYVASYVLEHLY
Type of experiment: biochemical. The settings on record: tight-binding equation fit, equilibrium conditions; substrate AAFA 0.1mM; preincubation 15 min; 37 °C; means (n = 3) ± SD. How it is done: (§1) Inhibitory activities against CPA- and CPB-type forms (bovine and human variants of CPA1, CPA2, CPA4, CPB1, and TAFI) were assayed for all extracts, subject to the experimental conditions that enzyme (E), substrate (S) and inhibitor (I) concentrations as well as the [I]/[E] ratio and preincubation time followed the requirements for tight-binding inhibitor assays. Similar approaches were followed to measure the activities of proteases of different catalytic types, like pepsin, papain, trypsin and subtilisin [45, 46, 47, 48]. All assays were performed in triplicate at 25 °C in a multiplexed manner. For 96-well assays an iEMS spectrophotometer reader/dispenser FM (Labsystems, Finland) was used with a final reaction volume of 250 μL. For cuvette assays, a Cary 400 Bio spectrophotometer (Varian Inc., Palo Alto, CA, USA) spectrophotometer was used with a final reaction volume of 1 ml. The reactions were followed at 5 s intervals for 5 min and recorded as initial velocities. In the protease inhibition assays, mixtures of activity buffer, biological sample and enzyme were preincubated at 25 °C for 10min, before substrate addition. The assay conditions were as follows: for CPA-like enzymes, 7.0nM CPA, 0.1mM AAFP substrate in 20mM Tris-HCl pH 7.5, 500mMNaCl, 1% v/v dimethyl sulfoxide (DMSO), 0.05% w/v BRIJ-35 was used. For CPB-like enzymes, CPB 3.0nM CPB, 0.1mM AAFA substrate and activity buffer of 20 mM Tris-HCl pH [50].
(§2) The Ki values of natural and recombinant NvCI against bCPA1, hCPA1, hCPA2, rat CPA3, hCPA4, hCPB1, bTAFI, hTAFI, hCPD and hCPZ were determined by measuring the enzymatic residual activity (Vi/V0 = a) at different inhibitor concentrations and using a fixed enzyme and substrate concentrations as described above, where vi and v0 are the fraction of enzymatic activity in the presence and absence of inhibitor, respectively, in terms of initial velocities. The determination of Ki values was carried out on equilibrium conditions ([E0]/Ki ≤ 10), using a previously determined preincubation time of 15 min, required to establish enzyme-inhibitor equilibrium. Working temperature was 37 °C. The best estimates of Ki values were obtained by fitting the experimental data to the equation for tight-binding inhibitors by non-linear regression using the GraphPad Prisma 5 software (GraphPad Software, Inc., San Diego, CA, USA) at p < 0.05. The real Ki values against each of these A/B-type MCPs were calculated according to the equation described by Morrison and Copeland [19, 20].

The target of another experiment is T2, hCPZ (Homo sapiens, UniProt Q66K79).
T2 sequence (Q66K79 19-652): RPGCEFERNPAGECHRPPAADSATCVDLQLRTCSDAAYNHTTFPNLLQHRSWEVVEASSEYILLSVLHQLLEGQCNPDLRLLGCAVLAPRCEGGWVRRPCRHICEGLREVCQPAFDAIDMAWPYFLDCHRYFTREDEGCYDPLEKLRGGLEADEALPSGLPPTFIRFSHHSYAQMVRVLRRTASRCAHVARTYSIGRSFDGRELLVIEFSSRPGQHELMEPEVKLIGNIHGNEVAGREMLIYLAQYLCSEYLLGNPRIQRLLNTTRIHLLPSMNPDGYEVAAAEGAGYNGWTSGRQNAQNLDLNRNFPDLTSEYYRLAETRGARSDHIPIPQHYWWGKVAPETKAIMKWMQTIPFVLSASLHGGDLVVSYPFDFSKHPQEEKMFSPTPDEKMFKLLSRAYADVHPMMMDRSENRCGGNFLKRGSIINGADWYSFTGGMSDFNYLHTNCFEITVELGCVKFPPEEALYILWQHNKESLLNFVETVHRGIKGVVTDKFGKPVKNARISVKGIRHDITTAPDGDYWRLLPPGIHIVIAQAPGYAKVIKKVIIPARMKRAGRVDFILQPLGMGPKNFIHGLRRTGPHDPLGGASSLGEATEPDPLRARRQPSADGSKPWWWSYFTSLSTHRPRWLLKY
Type of experiment: biochemical. The settings on record: NI: No inhibitory activity detected for the [I]0 range from 1 nM to 1 mM. The method, then: as §1, §2

A further experiment addresses T3, bCPA1 (Bos taurus, UniProt P00730).
T3 sequence (P00730 111-419): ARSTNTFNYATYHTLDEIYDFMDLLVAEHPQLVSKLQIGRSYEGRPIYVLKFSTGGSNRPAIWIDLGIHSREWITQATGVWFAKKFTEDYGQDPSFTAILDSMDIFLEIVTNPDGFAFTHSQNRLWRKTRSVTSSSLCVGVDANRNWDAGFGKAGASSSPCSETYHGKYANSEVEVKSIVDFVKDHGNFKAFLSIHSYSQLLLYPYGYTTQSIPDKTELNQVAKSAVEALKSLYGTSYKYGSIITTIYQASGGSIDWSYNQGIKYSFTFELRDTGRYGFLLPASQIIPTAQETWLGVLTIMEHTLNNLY
Type of experiment: biochemical, bovine. How it is done:
as §1, §2

Where two headings read alike, the source gives them in different places. No end group written: not given here.

“NvCI: 53-residue, three-disulphide proteinaceous metallocarboxypeptidase inhibitor from the marine snail Nerita versicolor; major isoform; UniProt P86912 (FHVPDDRPCINPGRCPLVPDATCTFVCKAADNDFGYECQHVWTFEGQRVGCYA; disulfide (positions not given here); also: three disulphides, pairing not given here; UniProt P86912 1-53, looked up)”: the Ki in the experiment with hCPB was 0.000111 ± 4.7e-06 µM; with hCPZ, above 1000 µM; with bCPA1 (natural isoforms, apparent Ki, without correction by competing assays, read-out: derived Ki towards bCPA (apparent Ki values)), 27 ± 2 pM; with bCPA1 (tight-binding equation fit, equilibrium conditions, substrate AAFP 0.1mM, 20mM Tris-HCl pH 7.5, 500mM NaCl, preincubation 15 min, 37 °C, means (n = 3) ± SD, read-out: Ki), 9.6 ± 1.4 pM.
